Experimental data published in patent US20020102568, “Nucleic acid sensor molecules” (published 2002).

Biological target: ERK2 (unactivated, unphosphorylated) (UniProt P28482 P28482:2-360)
Experiment: cleavage_in_vitro; half-maximal allozyme activation; about 100-fold activation by ERK2; 100 mM KCl, 1 mM MgCl2, 10 mM Tris 7.5, 34 C; text cites SEQ 39, listing gives Erk sensor molecule as SEQ 42
Procedure: To examine the dependence of activation on the concentration of ERK2, various amounts of ERK2 were added to different reactions (FIG. 31b). One half-maximal nucleic acid sensor molecule activation is promoted by ˜800 pg/μl ERK2.

Chain of ERK2 (unactivated, unphosphorylated) (P28482 2-360, one chain of several): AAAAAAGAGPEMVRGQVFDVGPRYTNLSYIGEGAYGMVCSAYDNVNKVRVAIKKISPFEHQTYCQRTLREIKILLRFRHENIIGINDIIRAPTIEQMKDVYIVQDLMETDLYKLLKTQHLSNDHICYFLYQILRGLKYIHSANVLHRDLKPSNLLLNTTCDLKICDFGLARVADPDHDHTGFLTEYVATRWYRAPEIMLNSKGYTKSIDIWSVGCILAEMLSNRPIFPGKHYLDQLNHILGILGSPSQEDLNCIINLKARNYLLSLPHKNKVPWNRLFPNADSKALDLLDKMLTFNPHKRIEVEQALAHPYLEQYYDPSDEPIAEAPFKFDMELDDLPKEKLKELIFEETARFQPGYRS

B1: ERK2-responsive hammerhead allozyme (ssRNA)
RNA: GCGUGACCUGAUGAGUCACGCUAAGGAGGAUUUCCGAAAGCGGCUACGGUCCGCCAGUGUUACGAAACGUUCCC
EC50: ~0.8 µg/mL
